# Results published in publication PMC9674588, “Molecular recognition of a membrane-anchored HIV-1 pan-neutralizing epitope” (Communications Biology, 2022).
# Entries after “also recorded” stand apart in the source; their conditions may differ. Where no end group is shown, it is not given here.
# Experiments:
# [1] = Vesicle flotation (incorporation of reconstituted peptides into membranes); format: physicochemical; details: POPC, 1:50 mol:mol, flotation in sucrose gradient, Western blot
# Excerpt: Supplementary Figure 4: Incorporation of reconstituted peptides into membranes. (a) Diagram illustrating the Liposome flotation method. Liposome-peptide co mplex es were subjected to ultracentrifugation in a sucrose gradi ent after the reconstitution process. (b) The pres ence of th e peptides in the floated and non- floated fractions o f the gradient and in the original sample (input) as reveal ed b y Western Blot anal ysis aft er Tris -Tricine SDS-PAGE separation. Line plots below […]
# liposomes. The peptide-to-lipid ratio was 1:50 (mol:mol).
# (1 picture or pasted object on this page, not shown here)
# [2] = Infrared spectroscopy (amide I) of peptides reconstituted in lipid bilayers; format: physicochemical; details: for IR amide-I band area, 1630 cm^−1 (solvated helices) / IR amide-I band area, 1642 cm^−1 (helix-helix interactions/disordered) / IR amide-I band area, 1655 cm^−1 (α-helix) / IR amide-I band area, 1670 cm^−1 (turns): monounsaturated PC, D2O PBS
# Excerpt: In addition, the lipid bilayer distance covered by the hydrocarbon acyl chains strongly conditions the favorable interactions between TMDs and lipids, so that a mismatch between this distance and the TMD length can give rise to alterations in the structure and function of the integral membrane proteins. Therefore, to rule out DC effects on the conformations adopted by the reconstituted MPER-TMD peptides, we performed IR experiments and varied systematically this parameter utilizing a complete series of monounsaturated PCs (i.e., diC14:1PC, diC16:1PC, diC18:1PC, diC20:1PC and diC22:1PC)[55].
# Infrared spectra were recorded in a Bruker Tensor 27 spectrometer equipped with a mercury-cadmium-telluride detector using a Peltier-based temperature controller (TempCon, BioTools Inc., Wauconda, IL) with calcium fluoride cells (BioCell, BioTools Inc., Wauconda, IL). Lipid vesicles with the peptides reconstituted were lyophilized and subsequently prepared at 3 mg/mL in D2O buffer (PBS). A 25 μL sample aliquot was deposited on a cell that was sealed with a second cell. Reference windows without peptide were prepared similarly. Typically, 1000 scans were collected for each background and sample, and the spectra were obtained with a nominal resolution of 2 cm^−1. Data treatment and band decomposition of the original amide I have been described elsewhere.
# Fab 10E8 [3] = assay: AFM single-molecule force spectroscopy of Fab 10E8-peptide unbinding in POPC SPBs; format: binding; details: for MPRF (most probable rupture force), mean: 1:50
# Description: SPBs were produced by the vesicle adsorption method and their topography analyzed using a Nanowizard III AFM (JPK Instruments) under contact mode. Briefly, approximately 30 µl of the vesicle suspensions described above were deposited onto freshy cleaved mica disks (area 15 mm^2) preincubated with 30 µl of 150 mM KCl, 10 mM Tris, pH = 7.4 (measurement buffer) and incubated for 30 min at room temperature, leading to the formation of SPBs. The samples were carefully rinsed with measurement buffer before the AFM experiment and always kept under aqueous environment. BL-AC40-C2 Si3N4 cantilevers (Olympus, Japan) with a nominal spring constant of 0.09 N/m were used for bilayer imaging with 0.5 nN of force applied.
# For single molecule force spectroscopy, MLCT-BIO probes (Bruker, Santa Barbara, CA USA) were functionalized with Fab 10E8 using well established protocols. To that end, cantilevers were first rinsed with acetone and water, exposed to UV-ozone and coated with 3-Aminopropyldimethylethoxysilane (APDMES). They were then incubated with glutaraldehyde and finally with Fab. Finally, to passivate possible unreacted aldehyde moieties, cantilevers were incubated in 0.1% Bovine Serum Albumin (BSA) for 1 h at room temperature and rinsed in measurement buffer prior to use. Force maps were recorded using a maximum applied force of 0.2 nN, a varying contact time of 0.5, 1, 2 and 5 s and varying retraction speeds of 0.1 µm/s, 2 µm/s and 10 µm/s. Data were analyzed with the data processing software from JPK Instruments (Berlin, Germany).
# To determine the MPRF at a given loading rate the frequency histograms of the measured forces were fitted to a Gaussian distribution (Eq. 1) and its maximum calculated.1 y=Amplitude⋅exp−0.5⋅x−Mean/SD^2
# MPRF is a function of the loading rate as defined by (Eq. 2):2 MPRF=kβ⋅T/χβlnrf⋅χβ/koff⋅kβ⋅T where kβ is Boltzmann constant, T is the temperature, koff is the natural dissociation rate at zero force and rf is the loading rate.
# These parameters can be actually obtained from the slope of the linear fit of the data, and by linearly extrapolating the experimental data to zero external force, respectively.
# [4] = GUV permeabilization (soluble KK114 entry); details: POPC GUVs with peptide reconstituted
# Description: When required, peptide dissolved in 10% (v/v) HFIP was included in the organic phase at 1:250 peptide-to-lipid molar ratio. […] For GUV permeabilization assays, GUVs were added to a BSA-blocked microscope chamber that already included the unconjugated and soluble KK114 dye, and were incubated for 15 min prior to imaging. Confocal microscopy images were acquired on an inverted confocal fluorescence microscope (Nikon Eclipse TE-2000, Nikon, Nikon Instruments, Tokyo, Japan). […] The band pass filters used were 515/30 and Long Pass 650 nm. The objective used was a 63X oleo immersion with a numerical aperture (NA) of 1.2.
# Fab 10E8 [5] = assay: Binding of KK114-Fab 10E8 to single GUVs containing the peptides reconstituted (confocal microscopy); details: for Fab 10E8 binding vs TMD length and bilayer thickness (in words): GUVs of diC14:1PC, POPC, diC22:1PC
# Description: To that end, we quantified antibody binding to single vesicles by confocal microscopy of Giant Unilamellar Vesicles (GUVs) incubated with fluorescently labeled Fab 10E8[36],[47].
# Thus, to establish the influence of the bilayer thickness on the accessibility to the 10E8 epitope, we selected lipid bilayers made of diC14:1PC and diC22:1PC, which are respectively thinner and thicker than those made of POPC (C16:0-C18:1PC)[52],[53].
# To prepare lipid bilayers containing reconstituted peptide, lipids and MPER-TMD-derived peptides were mixed in organic solvent prior to the production of the liposomes. Briefly, POPC dissolved in chloroform:methanol 1:2 (vol:vol) was mixed with peptide dissolved in HFIP at the desired peptide-to-lipid molar ratio. The mixture was dried under a N2 stream and traces of organic solvents were removed by 1 h vacuum pumping. Subsequently, the dried lipid films were subjected to 2 h of gentle hydration with H2O using a N2 gas bubbler to facilitate further dispersion of the dried lipid-peptide film in PBS aqueous buffer. Next, the multilamellar vesicles were bath sonicated (1 h, 55 °C) and subjected to 15 freeze and thaw cycles to obtain unilamellar vesicles.
# For binding experiments, NBD-labeled GUVs were produced following the electro-formation method as previously described[47]. In brief, a total of 2 mM of lipid was dissolved in 200 μL CHCl3:CH3OH with the fluorescent probe NBD-PE (0.5%). When required, peptide dissolved in 10% (v/v) HFIP was included in the organic phase at 1:250 peptide-to-lipid molar ratio. The GUVs were added to a bovine serum albumin (BSA)-blocked microscope chamber that already included 250 nM of 10E8-based Fabs conjugated with the KK114 probe at residue C216HC, and were incubated for 15 min prior to imaging. […] Confocal microscopy images were acquired on an inverted confocal fluorescence microscope (Nikon Eclipse TE-2000, Nikon, Nikon Instruments, Tokyo, Japan). NBD-stained GUVs and Fabs conjugated with the KK114 probe were excited at 476 nm and 637 nm, respectively. […] The band pass filters used were 515/30 and Long Pass 650 nm. […]
# [6] = Breakthrough force of POPC SPBs (FS-AFM); details: peptide-to-lipid 1:50
# Excerpt: Permeabilization of single vesicles correlated with effects of the reconstituted peptides on the nanomechanical stability of SPBs analyzed by FS-AFM[57] (Fig. 6b). In this approach, we measured the breakthrough forces of the different SPBs to quantitatively determine the nanomechanical resistance to membrane rupture. By comparing the AFM tip indentations through the different bilayer systems at the same approach speed, we measured the discontinuity in the approach curve which corresponds to the breakthrough force; a parameter widely used to assign the mechanical stability of SPBs[57]. […] This increase was even larger than that observed in an SPB containing 50 mol % cholesterol, which was added as a stiffening-control sample to the analysis. […]
# SPBs were produced by the vesicle adsorption method and their topography analyzed using a Nanowizard III AFM (JPK Instruments) under contact mode. […]
# Force spectroscopy data for SPB breakthrough measurements were collected using SNL10 Si3N4 cantilever (Bruker, Santa Barbara, CA, USA) with a nominal spring constant of 0.35 N/m, at a speed of 1 µm/s and applying 10 nN of maximum force. Discontinuities in the force versus separation approach curve were determined for each of the indentation curves as reproducible jumps within the extended traces using JPK data processing software.
# [7] = hydrocarbon thickness DC 22.8 Å
# [8] = reconstituted in POPC bilayers, 1:50
Substance,"IR amide-I band area, 1630 cm^−1 (solvated helices) ([2]; DC 25.6 Å)","IR amide-I band area, 1642 cm^−1 (helix-helix interactions/disordered) ([2]; DC 25.6 Å)","IR amide-I band area, 1655 cm^−1 (α-helix) ([2]; DC 25.6 Å)","IR amide-I band area, 1670 cm^−1 (turns) ([2]; DC 25.6 Å)","IR amide-I band area, 1630 cm^−1 (solvated helices) ([2]; DC 29 Å)","IR amide-I band area, 1642 cm^−1 (helix-helix interactions/disordered) ([2]; DC 29 Å)","IR amide-I band area, 1655 cm^−1 (α-helix) ([2]; DC 29 Å)","IR amide-I band area, 1670 cm^−1 (turns) ([2]; DC 29 Å)","IR amide-I band area, 1630 cm^−1 (solvated helices) ([2]; DC 32 Å)","IR amide-I band area, 1642 cm^−1 (helix-helix interactions/disordered) ([2]; DC 32 Å)","IR amide-I band area, 1655 cm^−1 (α-helix) ([2]; DC 32 Å)","IR amide-I band area, 1670 cm^−1 (turns) ([2]; DC 32 Å)","IR amide-I band area, 1630 cm^−1 (solvated helices) ([2]; DC 35 Å)","IR amide-I band area, 1642 cm^−1 (helix-helix interactions/disordered) ([2]; DC 35 Å)","IR amide-I band area, 1655 cm^−1 (α-helix) ([2]; DC 35 Å)","IR amide-I band area, 1670 cm^−1 (turns) ([2]; DC 35 Å)","IR amide-I band area, 1630 cm^−1 (solvated helices) [2, 7]","IR amide-I band area, 1642 cm^−1 (helix-helix interactions/disordered) [2, 7]","IR amide-I band area, 1655 cm^−1 (α-helix) [2, 7]","IR amide-I band area, 1670 cm^−1 (turns) [2, 7]",further results
"C-MPER-TMD709: Env residues 671–709, HXB2 numbering, which included the nominal Env TMD sequence (Env residues 684–709) (NWFNITNWLWYIKLFIMIVGGLVGLRIVFAVLSIVNRVR; UniProt P04578 671-709, looked up, fragment)",18.9%,31%,41.6%,4.9%,14%,33.4%,45.2%,4.6%,16%,34.8%,43.2%,3.4%,15.8%,40%,38.5%,2.9%,20%,34.5%,33.8%,6.4%,"incorporation into membranes (in words) [1]: total incorporation; IR amide-I absorption maximum [2, 8]: around 1650 cm^−1; IR amide-I band component [2, 8]: 1642 cm⁻¹; koff ratio among peptides (Fab 10E8 [3]; N/C-MPER683 vs C-MPER-TMD709, POPC SPBs): ≈ 22; attachment (binding) frequency (in words) (Fab 10E8 [3]; POPC SPBs, vs N/C-MPER683, contact time series, retraction 2 μm s^−1): attachment appeared to occur at higher frequency; MPRF (in words) (Fab 10E8 [3]; POPC SPBs, contact time 0.5 s, loading rate 41 nN s^−1, vs N/C-MPER683): clearly shifted to higher values; t0.5(N/C-MPER)/t0.5(C-MPER-TMD) (Fab 10E8 [3]; interaction time for half maximal probability of binding, POPC SPBs): ≈ 1.4; MPRF (most probable rupture force), mean (Fab 10E8 [3]; ln (loading rate pN/s) 3.62033, POPC SPBs): 33.4766 pN; MPRF (most probable rupture force), mean (Fab 10E8 [3]; ln (loading rate pN/s) 4.62006, POPC SPBs): 53.13 pN; MPRF (most probable rupture force), mean (Fab 10E8 [3]; ln (loading rate pN/s) 6.62009, POPC SPBs): 93.3506 pN; MPRF (most probable rupture force), mean (Fab 10E8 [3]; ln (loading rate pN/s) 7.62012, POPC SPBs): 73.97 pN; MPRF (most probable rupture force), mean (Fab 10E8 [3]; ln (loading rate pN/s) 8.62012, POPC SPBs): 81.12 pN; MPRF (most probable rupture force), mean (Fab 10E8 [3]; ln (loading rate pN/s) 9.62012, POPC SPBs): 90.66 pN; MPRF (most probable rupture force), mean (Fab 10E8 [3]; ln (loading rate pN/s) 10.6201, POPC SPBs): 135 pN; permeabilization (in words) [4]: viewed as empty spheres; also recorded: essentially impermeable; Fab 10E8 binding vs TMD length and bilayer thickness (in words) (Fab 10E8 [5]): C-MPER-TMDLLA-709 > C-MPER-TMD709 > C-MPER-TMD700; Fab 10E8 binding to GUVs (in words) (Fab 10E8 [5]; POPC GUVs, peptide-to-lipid 1:250, 250 nM Fab): appeared to bind more efficiently to C-MPER-TMD709-containing vesicles than to the N/C-MPER683-containing ones; breakthrough force (in words) [6]: increased the values of the forces at which rupture was observed"
"C-MPER-TMD700: Env residues 671–700, HXB2 numbering, containing a minimal TMD anchor and Lys-tags added at both ends (NWFNITNWLWYIKLFIMIVGGLVGLRIVFA; also: Lys-tags added at both ends, length not given here; UniProt P04578 671-700, looked up, fragment)",8.1%,31.2%,52.3%,7%,8.4%,39.3%,48.1%,2.6%,6.4%,39.8%,49.8%,3.9%,3.1%,52%,39.7%,1%,5.8%,35.1%,51.8%,7.4%,Fab 10E8 binding vs TMD length and bilayer thickness (in words) (Fab 10E8 [5]): C-MPER-TMDLLA-709 > C-MPER-TMD709 > C-MPER-TMD700
